The subject of the data set is Escherichia coli TOP10. Nature of the data set: shrunken log2 fold change of peptide-encoding DNA abundance (4.5 h post-induction vs induction); higher = less antimicrobial activity (less host growth inhibition). The following applies: time post-induction: 4.5 h; library: site-saturation at positions 5, 18, 19, 20.
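Note: peptides expressed intracellularly from a pBAD plasmid library in pooled LB shake-flask culture, induced with 0.3% L-arabinose, DNA abundance read by NGS, three biological replicates, DESeq2 with apeglm shrinkage.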

On to RRIRSRPPRLPRPRPRPNGQPRP, for which the “shrunken log2 fold change” value came to 0.0535.

In the case of RRIRKRPPRLPRPRPRPPAEPRP, the “shrunken log2 fold change” value amounted to 1.07.

Consider RRIRGRPPRLPRPRPRPCEEPRP, for which the “shrunken log2 fold change” value worked out at 0.742.

As to RRIRQRPPRLPRPRPRPLNPPRP, the “shrunken log2 fold change” value was -0.303.

Regarding RRIRDRPPRLPRPRPRPIFFPRP, the “shrunken log2 fold change” value came to 0.0831.

For the sequence RRIRNRPPRLPRPRPRPANPPRP, the “shrunken log2 fold change” value came out at 0.0813.

As to RRIRMRPPRLPRPRPRPAIGPRP, the “shrunken log2 fold change” value amounted to 0.0174.

RRIRIRPPRLPRPRPRPVAAPRP: the “shrunken log2 fold change” value is 0.176.

Turning to RRIRYRPPRLPRPRPRPYEAPRP, the “shrunken log2 fold change” value was -0.336.

As to RRIRERPPRLPRPRPRPFVLPRP, the “shrunken log2 fold change” value is -0.358.

As for RRIRPRPPRLPRPRPRPESQPRP, the “shrunken log2 fold change” value was -0.0975.

With RRIRLRPPRLPRPRPRPNGIPRP, the “shrunken log2 fold change” value is -0.00731.

Turning to RRIRNRPPRLPRPRPRPWHGPRP, the “shrunken log2 fold change” value is -0.153.

For RRIRCRPPRLPRPRPRPHIQPRP, the “shrunken log2 fold change” value was -0.73.

Regarding RRIRFRPPRLPRPRPRPIDDPRP, the “shrunken log2 fold change” value was -0.548.

On to RRIRLRPPRLPRPRPRPDEGPRP, for which the “shrunken log2 fold change” value was -0.018.

For the sequence RRIRHRPPRLPRPRPRPIELPRP, the “shrunken log2 fold change” value was -0.0301.

As for RRIRNRPPRLPRPRPRPWRDPRP, the “shrunken log2 fold change” value was -0.342.

For the sequence RRIRKRPPRLPRPRPRPPLQPRP, the “shrunken log2 fold change” value worked out at 0.558.

With RRIRNRPPRLPRPRPRPIRWPRP, the “shrunken log2 fold change” value was 0.18.

Turning to RRIRHRPPRLPRPRPRPKRRPRP, the “shrunken log2 fold change” value was found to be 0.116.

Turning to RRIRIRPPRLPRPRPRPYIIPRP, the “shrunken log2 fold change” value was -0.403.

For RRIRLRPPRLPRPRPRPLAHPRP, the “shrunken log2 fold change” value is -0.174.

As for RRIRYRPPRLPRPRPRPYPMPRP, the “shrunken log2 fold change” value was -0.744.

On to RRIRSRPPRLPRPRPRPDTLPRP, for which the “shrunken log2 fold change” value was -0.126.

Turning to RRIRWRPPRLPRPRPRPYWHPRP, the “shrunken log2 fold change” value is -0.377.

As for RRIRLRPPRLPRPRPRPVFIPRP, the “shrunken log2 fold change” value was -0.454.

Take RRIRDRPPRLPRPRPRPLRLPRP: the “shrunken log2 fold change” value amounted to 0.0919.

RRIRIRPPRLPRPRPRPIPCPRP: the “shrunken log2 fold change” value was -0.00867.

On to RRIRPRPPRLPRPRPRPGSHPRP, for which the “shrunken log2 fold change” value came to 0.142.

Take RRIRIRPPRLPRPRPRPYMMPRP: the “shrunken log2 fold change” value was -1.26.

RRIRQRPPRLPRPRPRPWRDPRP: the “shrunken log2 fold change” value came out at 0.19.

As for RRIRCRPPRLPRPRPRPRCIPRP, the “shrunken log2 fold change” value was -0.29.

For the sequence RRIRWRPPRLPRPRPRPVLNPRP, the “shrunken log2 fold change” value came out at 0.116.

With RRIRDRPPRLPRPRPRPKLAPRP, the “shrunken log2 fold change” value came out at 0.271.

Consider RRIRSRPPRLPRPRPRPRITPRP, for which the “shrunken log2 fold change” value was -0.421.

As for RRIRNRPPRLPRPRPRPIKNPRP, the “shrunken log2 fold change” value is -0.108.

Turning to RRIRPRPPRLPRPRPRPDSHPRP, the “shrunken log2 fold change” value came out at 0.101.

As to RRIRPRPPRLPRPRPRPGNQPRP, the “shrunken log2 fold change” value was -0.143.

For RRIRTRPPRLPRPRPRPFSLPRP, the “shrunken log2 fold change” value was -0.0845.

Turning to RRIRHRPPRLPRPRPRPTFKPRP, the “shrunken log2 fold change” value is -0.537.

As to RRIRARPPRLPRPRPRPPGYPRP, the “shrunken log2 fold change” value is 0.365.

As to RRIRIRPPRLPRPRPRPLFHPRP, the “shrunken log2 fold change” value was -0.779.

For the sequence RRIRMRPPRLPRPRPRPLYDPRP, the “shrunken log2 fold change” value is -0.0878.

Turning to RRIRERPPRLPRPRPRPMQHPRP, the “shrunken log2 fold change” value was -0.04.

Turning to RRIRRRPPRLPRPRPRPHECPRP, the “shrunken log2 fold change” value came to 0.0921.

For the sequence RRIRGRPPRLPRPRPRPEAYPRP, the “shrunken log2 fold change” value stood at 0.0504.

For RRIRARPPRLPRPRPRPMQTPRP, the “shrunken log2 fold change” value turned out to be 0.114.

Take RRIRNRPPRLPRPRPRPFQLPRP: the “shrunken log2 fold change” value was -0.228.

On to RRIRCRPPRLPRPRPRPTMLPRP, for which the “shrunken log2 fold change” value is -0.096.

RRIRMRPPRLPRPRPRPGVDPRP: the “shrunken log2 fold change” value came to 1.68.

On to RRIRERPPRLPRPRPRPFYKPRP, for which the “shrunken log2 fold change” value came to 0.187.

Turning to RRIRRRPPRLPRPRPRPNYKPRP, the “shrunken log2 fold change” value is -0.232.

Consider RRIRDRPPRLPRPRPRPNYQPRP, for which the “shrunken log2 fold change” value was -0.187.

On to RRIRLRPPRLPRPRPRPGDEPRP, for which the “shrunken log2 fold change” value turned out to be 0.114.

In the case of RRIRIRPPRLPRPRPRPSTGPRP, the “shrunken log2 fold change” value is -0.505.

RRIRWRPPRLPRPRPRPMRKPRP: the “shrunken log2 fold change” value was 1.4.

Turning to RRIRARPPRLPRPRPRPYNKPRP, the “shrunken log2 fold change” value was -0.731.

Consider RRIRGRPPRLPRPRPRPDNLPRP, for which the “shrunken log2 fold change” value was -0.226.

Regarding RRIRNRPPRLPRPRPRPTPKPRP, the “shrunken log2 fold change” value worked out at 0.222.

For the sequence RRIRARPPRLPRPRPRPFCDPRP, the “shrunken log2 fold change” value came to 0.0183.

In the case of RRIRNRPPRLPRPRPRPGEFPRP, the “shrunken log2 fold change” value was -0.00204.

With RRIRIRPPRLPRPRPRPNFLPRP, the “shrunken log2 fold change” value was -0.677.

Consider RRIRYRPPRLPRPRPRPTMTPRP, for which the “shrunken log2 fold change” value was -0.859.

With RRIRVRPPRLPRPRPRPRSAPRP, the “shrunken log2 fold change” value turned out to be 0.258.

Take RRIRHRPPRLPRPRPRPIAHPRP: the “shrunken log2 fold change” value turned out to be 0.0481.

Turning to RRIRYRPPRLPRPRPRPSYIPRP, the “shrunken log2 fold change” value is -1.4.

RRIRKRPPRLPRPRPRPRVYPRP: the “shrunken log2 fold change” value was found to be 0.307.

Take RRIRARPPRLPRPRPRPWLEPRP: the “shrunken log2 fold change” value is -0.0344.

On to RRIRSRPPRLPRPRPRPHLTPRP, for which the “shrunken log2 fold change” value is -0.0599.

Take RRIRFRPPRLPRPRPRPIFSPRP: the “shrunken log2 fold change” value is -0.341.

For RRIRQRPPRLPRPRPRPTPGPRP, the “shrunken log2 fold change” value turned out to be 0.417.

Regarding RRIRVRPPRLPRPRPRPAQWPRP, the “shrunken log2 fold change” value was 0.188.

For RRIRARPPRLPRPRPRPVEGPRP, the “shrunken log2 fold change” value was found to be 0.329.

Take RRIRHRPPRLPRPRPRPWCVPRP: the “shrunken log2 fold change” value is -0.386.

Consider RRIRHRPPRLPRPRPRPYEDPRP, for which the “shrunken log2 fold change” value is -0.336.

With RRIRHRPPRLPRPRPRPLPVPRP, the “shrunken log2 fold change” value amounted to 0.125.

As for RRIRERPPRLPRPRPRPWLYPRP, the “shrunken log2 fold change” value came out at 0.102.

As for RRIRIRPPRLPRPRPRPHEMPRP, the “shrunken log2 fold change” value is -0.143.

On to RRIRYRPPRLPRPRPRPDHTPRP, for which the “shrunken log2 fold change” value was -0.11.

For the sequence RRIRPRPPRLPRPRPRPDDVPRP, the “shrunken log2 fold change” value is -0.0212.

On to RRIRHRPPRLPRPRPRPNHSPRP, for which the “shrunken log2 fold change” value is -0.785.

As to RRIRDRPPRLPRPRPRPGATPRP, the “shrunken log2 fold change” value was determined as 1.01.

Take RRIRVRPPRLPRPRPRPQCFPRP: the “shrunken log2 fold change” value was 0.00325.

Consider RRIRMRPPRLPRPRPRPMHSPRP, for which the “shrunken log2 fold change” value was 0.126.

RRIRVRPPRLPRPRPRPLKHPRP: the “shrunken log2 fold change” value is -0.486.

As to RRIRCRPPRLPRPRPRPPSWPRP, the “shrunken log2 fold change” value was 0.194.

In the case of RRIRVRPPRLPRPRPRPARGPRP, the “shrunken log2 fold change” value turned out to be 0.681.

RRIRKRPPRLPRPRPRPKEYPRP: the “shrunken log2 fold change” value worked out at 0.191.

In the case of RRIRPRPPRLPRPRPRPMLNPRP, the “shrunken log2 fold change” value was -0.164.

In the case of RRIRRRPPRLPRPRPRPQKVPRP, the “shrunken log2 fold change” value amounted to 0.234.

These data come from the supplement of paper PMC9112550, “Optimization of the antimicrobial peptide Bac7 by deep mutational scanning” (BMC Biology, 2022).
